# Data published in patent US20170051072A1.
# Key:
# [1] = biological target: human mesothelin with His-tag (in house) (human) (UniProt Q13421); test: ELISA, IgG on captured His-huMesothelin (in house)
# [2] = biological target: human mesothelin with His-tag (R&D Systems) (human) (UniProt Q13421); test: ELISA, IgG on captured His-huMesothelin (R&D)
# human mesothelin with His-tag (R&D Systems) (human), sequence (Q13421 other isoform, or with tags, fused parts or gaps limits assumed): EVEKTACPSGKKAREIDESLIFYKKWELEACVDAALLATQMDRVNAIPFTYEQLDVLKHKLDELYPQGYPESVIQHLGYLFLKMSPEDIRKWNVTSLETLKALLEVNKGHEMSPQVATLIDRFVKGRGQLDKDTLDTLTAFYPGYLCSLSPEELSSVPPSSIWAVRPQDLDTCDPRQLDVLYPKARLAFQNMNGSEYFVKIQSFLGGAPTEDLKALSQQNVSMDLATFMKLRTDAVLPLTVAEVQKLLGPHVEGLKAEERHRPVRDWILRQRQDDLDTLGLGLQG
# human mesothelin with His-tag (in house) (human), sequence (Q13421 other isoform, or with tags, fused parts or gaps limits assumed): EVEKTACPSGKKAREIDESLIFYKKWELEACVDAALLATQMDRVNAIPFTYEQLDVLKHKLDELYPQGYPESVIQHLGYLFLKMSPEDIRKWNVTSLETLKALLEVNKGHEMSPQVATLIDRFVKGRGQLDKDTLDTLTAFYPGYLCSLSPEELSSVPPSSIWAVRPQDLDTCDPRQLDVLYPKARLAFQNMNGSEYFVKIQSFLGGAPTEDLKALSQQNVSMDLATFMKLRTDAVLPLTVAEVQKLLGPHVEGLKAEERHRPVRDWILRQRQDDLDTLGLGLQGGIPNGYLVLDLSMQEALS
substance,measurement,setting,value
IgG VH HC_SS1/15436 + VL LC_SS1/15455 (antibody),EC50,[1],0.0411 mg/L
same,EC50,[2],0.0461 mg/L
